Patent US20130202615A1 (VACCINEX, published 2013)

Assays:
VEGF [1] = target: T1, VEGF (UniProt P15692-4 27-191, limits assumed); assay: Biacore SPR, both antibodies tested under the same conditions
T1 construct: also called VEGF-A; vascular endothelial growth factor
Source text: (§1) Data was fit with a bivalent model for affinity determination.

VEGF [2] = target: T1, VEGF; assay: Biacore SPR, VEGF immobilized on the chip, antibody as analyte, bivalent model fit
Source text: as §1

VEGF [3] = target: T1, VEGF; assay: VEGFR1 blocking ELISA: antibody pre-incubated with VEGF, added to a VEGFR1-coated plate
VEGF [4] = target: T1, VEGF; assay: VEGFR2 blocking ELISA: antibody pre-incubated with VEGF, added to a VEGFR2-coated plate
VEGF [5] = target: T1, VEGF; assay: summary table of MAb7392 characterization; affinity by Biacore, rounded form of the value in Table 2; summary Table 6, rounded value
Source text: as §1

VEGF [6] = target: T1, VEGF; assay: competition ELISA: titrated antibody and biotinylated bevacizumab added to a VEGF-coated plate, bound biotinylated bevacizumab detected with Strep-HRP; competitor: biotinylated bevacizumab

T1 sequence (P15692 other isoform, or with tags, fused parts or gaps limits assumed): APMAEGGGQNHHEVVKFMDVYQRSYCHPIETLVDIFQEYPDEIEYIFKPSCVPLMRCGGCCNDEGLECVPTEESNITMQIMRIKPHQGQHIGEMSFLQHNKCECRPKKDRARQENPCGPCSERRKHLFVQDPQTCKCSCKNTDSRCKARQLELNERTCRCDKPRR

B1: MAb7392 (antibody, V domains shown)
VH: QVQLVQSGAELRKPGASVKISCKASGYSLTYYGMNWVRQAPGQGLEWMGWINTFTGDSTYAQDFTGRFVFSLDTSVSTAYLQISSLKAEDMAMYYCAKYPHYYGSSHWYFDVWGQGTTVTVSS
VL: EIVLTQSPATLSVSPGERATLSCRASQSVNSNLAWYQQKPGQAPRVLIYGASTRATGIPARFSGSGSGTEFTLTISSLQSEDFAVYYCQQYSDIPWTFGQGTKLEIK
notes: also called H7230 + L7104
**Q.** With B1 as the binder, how does the “fold better affinity than bevacizumab” value (VEGF [1]) read?
**A.** ~4 fold

**Q.** What about the Kd (VEGF [2]) of the same binder?
**A.** 0.91 nM

**Q.** What about the IC50 (VEGF [3]) of the same binder?
**A.** 0.08 nM

**Q.** And the IC50 (VEGF [4])?
**A.** 0.18 nM

**Q.** And the Kd (VEGF [5])?
**A.** 0.9 nM

**Q.** And the “IC50 (read off the curve)” value (VEGF [6])?
**A.** ~0.6 nM
